The source of these data is PMC9540186 (The Plant Journal, 2022).

The series deals with the molecule itself. The experiment in a line: SDS-PAGE of non-boiled extracts with Western blot.

B1: GFP‐NtUVR8 fusion protein (full‐length Nicotiana tabacum UVR8) (receptor, UniProt A0A1S4AB85 1-441, looked up)
chain: MAADGSSERAVSRKVLLISAGASHSVALLSANVVCSWGRGEDGQLGLGDAEDRFSPTQVSALDEQQIVSVTCGADHATAYSEALKQVYSWGWGDFGRLGHGNSSDLFTPQPIKALHGICIKQIACGDSHCLAVTMEGEVQSWGRNQNGQLGLGTTEDSLVPQKIEAFKGIPVKMVAAGAEHTAAVTEDGELYGWGWGRYGNLGLGDRNDRLVPVKVSATVGEKMFMVACGWRHTICVSSSGSLYTYGWSKYGQLGHGDFEDHLFPHKVQALHDSFTSQISGGWRHTMALTADGELYGWGWNKFGQVGVGDNVDHCSPVQVKFPHDQKVILISCGWRHTLAVTERQNVFSWGRGTNGQLGHGESVDRNVPRIIEALSVDGSSGQQIGSSTSDPSAAEKSWVSPTERYAVVPNENVPKQTVTSVKGNGNDVNVPENDVKRIRL
Regarding B1, the “stoichiometry N” value is 2.
